Assay results published in the RNAGym collection of RNA variant scans (doi:10.1073/pnas.2313332121).
Fewer inactive variants are shown than the library holds.

B1: TPR 5TU (parent)
chain: GGAUCUUCUCGAUCUAACAAAAAAGACAAAUCUGCCACAAAGCUUGAGAGCAUCUUCGGAUGCAGAGGCGGCAGCCUUCGGUGGCGCGAUAGCGCCAACGUUCUCAACUAUGACACGCAAAACGCGUGCUCCGUUGAAUGGAGUUUAUCAUG

Variants of: B1
Test: polymerase ribozyme fitness, log enrichment relative to wild type (log ratio); higher = more active; in vitro selection for triplet polymerase activity
How it was run: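 Fitness compares each genotype's enrichment to that of the wild type on a logarithmic scale, averaging replicates with inverse-variance weights. The logarithm is base 2. Enrichment came from Illumina sequencing of input and output libraries after one triplicate round of in vitro selection, which included frozen incubation at −7 °C, of PCR-built, transcribed mutant libraries of each subunit of a heterodimeric triplet polymerase ribozyme. Only genotypes with ≥10 input reads and ≥1 read per output were kept.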

Row | Variant | polymerase ribozyme fitness (log ratio)
1 | GGAUCUUCUCGAUCUAACAAAAAAGACAAAUCUGCCACAAAGCUUGAGAGCAUCUUCAGAUGCAGAGGCGGCAGCCUUCGGUGGCGCGAUCGCGCCAACGUUCUCAACUAUGACACGCAAAACGCGUGCUCCGUUGAAUGGAGUUUAUCAUG | ≤ -4.2
2 | GGAUCUUCUCGAUCUAACAAAAAAGACAAAUCUGCCACAAAGCUUGAGAGCAUCUUCAGAUGCAGAGGCGGCAGUCUUCGGUGGCGCGAUAGCGCCAACGUUCUCAACUAUGACACGCAAAACGCGUGCUCCGUUGAAUGGAGUUUAUCAUG | -1.82
3 | GGAUCUUCUCGAUCUAACAAAAAAGACAAAUCUGCCACAAAGCUUGAGAGCAUCUUCAGAUGCAGAGGCGGCAGCCUUCGGUGGCGCGAUAGCGCCAGCAUUCGCAACUAUGGCACGCUUAUCGCGUGCUCCGUUGAAUGGAGUCUAUCAUG | ≤ -4.2
4 | GGAUCUUCUCGAUCUAACAAAAAAGACAAAUCUGCCACAAAGCUUGAGAGCAUCUUCAGAUGCAGAGGCGGCAGCCUUCGGUGGCGAGAUAGCGCCAGCGUUCUCAACUAUGACACGCAACACGCGUGCUCCGUUGAAUGGAGUUUAUCAUG | ≤ -4.2
5 | GGAUCUUCUCGAUCUAACAAAAAAGACAAAUCUGCCACAAAGCUUGAGAGCAUCUUCAGAUGCAGAGGCGGCAGUCUUCGGUGGCGCGAUAGCGCCAACGUUCUCAACUAUGACACGGAAAACGCGUGCUCCGUUGAAUGGAGUUUAUCAUG | -0.168
6 | GGAUCUUCUCGAUCUAACAAAAAAGACAAAUCUGCCACAAAGCUUGAGAGCAUCUUCAGAUGGAGAGGCGGCAGCCUUCGGUGGCUCGAUAGCCCCAACGUUCUCAACUAUGACACGCAAAACGCGUGCUCCGUUGCAUGUAGUUUAUCACG | ≤ -4.2
7 | GGAUCUUCUCGAUCUAACAAAAAAGACAAAUCUGCCACAAAGCUUGAGAGCAUCUUCAGAUGCAGAGGCGGCAGUCUUCGGUGGCGCGAUAGCGCGAACGUUCUCAACUAUGACACGCAAAACGCGUGCUCCGUUGAAUGGAGUUUAUCAUG | 0.314
8 | GGAUCUUCUCGAUCUAACAAAAAAGACAAAUCUGCCACAAAGCUUGAGAGCAUCUUCAGAUGCAGAGGCGGCAGCCUUCGGUGGCGCGAUAGCGCCUACGUUCUCAUCUAUGACACGCAAAACGCGUGCUCCGUUGAAUGGAGUUUAUCAUG | -4.18
9 | GGAUCUUCUCGAUCUAACAAAAAAGACAAAUCUGCCACAAAGCUUGAGAGCAUCUUCAGAUGCAGAGGCGGCAGGCUUCGGUGGCGCGAUAGCGCCAACGUUCUCAACUAUGACACGCAAAACGGGUGAUCCGUUGAAUGGAGUUUAUCAGG | ≤ -4.2
10 | GGAUCUUCUCGAUCUAACAAAAAAGACAAAUCUGCCACAAAGCUUGAGAGCAUCUUCAGAUGCAGAGGCGGCAGCCUUCGGUGGAGCGAUAGCGCCAACGUUCUCAACUAUGACACGCAAAACGCGUGCUCCGUUGAAUGGAGUUUAUCAUG | -1.11
11 | GGAUCUUCUCGAUCUAACAAAAAAGACAAAUCUGCCACAAAGCUUGAGAGCAUCUUCAGAUGCAGAGGCGGCAGCCUUCGGUGGGGCGAUAGCGCCAACUUUCUCAACUAUGACACGCAAAACGCGUGCUCCGUUGAAUGGAGAUUAUCAUG | ≤ -4.2
12 | GGAUCUUCUCGAUCUAACAAAAAAGACAAAUCUGCCACAAAGCUUGAGAGCAUCUUCAGAUGCAGAGGCGGCAGCCUUCGGUGGCGCGAUAGCGCCAACGUUCUCAACUAUGACACGCAACACGCGUGCUCCGUUGAAUGGAGUUUAUCAUG | 0.557
13 | GGAUCUUCUCGAUCUAACAAAAAAGACAAAUCUGCCACAAAGCUUGAGAGCAUCUUCAGAUGCAGAGGCGGCAGUCUUCGGUGGCGCGAUGGCGGCAACGUUCUCAACUAUGACACGCAAAACGCGUGCUCCGUUGAAUGGAGUUUAUCAUG | ≤ -4.2
14 | GGAUCUUCUCGAUCUAACAAAAAAGACAAAUCUGCCACAAAGCUUGAGAGCAUCUUCAGAUGCAGAGGCGGCAGCCUUCGGUGGCGCGAUAGCGCCAACGUUCUCAACUAUGACACGCAAAACGCGUGCUCCGUUGAAUGGUGUUUAUCAUG | -0.199
15 | GGAUCUUCUCGAUCUAACAAAAAAGACAAAUCUGCCACAAAGCUUGAGAGCAUCUUCAGAUGCAGAGGCGGCAGCAUUCCGUGGUGCGGCAGCGCCAACGGUCUCAACUAUGACACGCAAAACGCGUGCUCCGUUGAAUGGAGUUUAUAAUG | ≤ -4.2
16 | GGAUCUUCUCGAUCUAACAAAAAAGACAAAUCUGCCACAAAGCUUGAGAGCAUCUUCAGAUGCAGAGGCGGCAGCCUUCGGUGGUGCGAUAGCGCCAACGUUCUCAACUAUGACUCGCAAAACGCGUGCUCCGUUGAAUGGAGGUUAUCAUG | -1.46
17 | GGAUCUUCUCGAUCUAACAAAAAAGACAAAUCUGCCACAAAGCUUGAGAGCAUCUUCAGAUGCAGAGGCGGUAGCAUUCGGUGGCGCGAUAGCGCCAACGUUCUCAACUAUGACACGCAAAACGCGUGCUCCGUUGAAUGGAGUUUAUCAUG | -1.3
18 | GGAUCUUCUCGAUCUAACAAAAAAGACAAAUCUGCCACAAAGCUUGAGAGCAUCUUCAGAUGCAGAGGCGGCAGCCUUCGGUGGGGCGAUAGCGCCAACGUUCUCAACUAUGACACGAAAAACGCCUGCUCCGUUGAAUGGAGUUUAUCAUG | -3.62
19 | GGAUCUUCUCGAUCUAACAAAAAAGACAAAUCUGCCACAAAGCUUGAGAGCAUCUUCAGAUGCAGAGGCGGCAGCCUUCGGUGGCGCGUUAGCGCAAACGUUCUCAACUAUGACGCGCAAAACGCGUGCUCCGUUGAAUGGAGUUUAUCAUG | -1.15
